Assay results published in paper doi:10.1101/2020.04.10.035014 (bioRxiv, 2020).

B1: C-terminus of INTS3 (INTS3c; residues 560-905 and 915-995, co-expressed) (domain or fragment, human)
chain 1: TVVEEPVDITPYLDQLDESLRDKVLQLQKGSDTEAQCEVMQEIVDQVLEEDFDSEQLSVLASCLQELFKAHFRGEVLPEEITEESLEESVGKPLYLIFRNLCQMQEDNSSFSLLLDLLSELYQKQPKIGYHLLYYLRASKAAAGKMNLYESFAQATQLGDLHTCLMMDMKACQEDDVRLLCHLTPSIYTEFPDETLRSGELLNMIVAVIDSAQLQELVCHVMMGNLVMFRKDSVLNILIQSLDWETFEQYCAWQLFLAHNIPLETIIPILQHLKYKEHPEALSCLLLQLRREKPSEEMVKMVLSRPCHPDDQFTTSILRHWCMKHDELLAEHIKSLLIKNNSLPRK
chain 2: KLAQLTLEQILEHLDNLRLNLTNTKQNFFSQTPILQALQHVQASCDEAHKMKFSDLFSLAEEYEDSSTKPPKSRRKAALSS
B2: INTS3(1-995) (domain or fragment, human, UniProt Q68E01 1-995, looked up)
chain: MELQKGKGAAAAAAASGAAGGGGGGAGAGAPGGGRLLLSTSLDAKDELEERLERCMSIVTSMTAGVSEREANDALNAYVCKGLPQHEEICLGLFTLILTEPAQAQKCYRDLALVSRDGMNIVLNKINQILMEKYLKLQDTCRTQLVWLVRELVKSGVLGADGVCMTFMKQIAGGGDVTAKNIWLAESVLDILTEQREWVLKSSILIAMAVYTYLRLIVDHHGTAQLQALRQKEVDFCISLLRERFMECLMIGRDLVRLLQNVARIPEFELLWKDIIHNPQALSPQFTGILQLLQSRTSRKFLACRLTPDMETKLLFMTSRVRFGQQKRYQDWFQRQYLSTPDSQSLRCDLIRYICGVVHPSNEVLSSDILPRWAIIGWLLTTCTSNVAASNAKLALFYDWLFFSPDKDSIMNIEPAILVMHHSMKPHPAITATLLDFMCRIIPNFYPPLEGHVRQGVFSSLNHIVEKRVLAHLAPLFDNPKLDKELRAMLREKFPEFCSSPSPPVEVKIEEPVSMEMDNHMSDKDESCYDNAEAAFSDDEEDLNSKGKKREFRFHPIKETVVEEPVDITPYLDQLDESLRDKVLQLQKGSDTEAQCEVMQEIVDQVLEEDFDSEQLSVLASCLQELFKAHFRGEVLPEEITEESLEESVGKPLYLIFRNLCQMQEDNSSFSLLLDLLSELYQKQPKIGYHLLYYLRASKAAAGKMNLYESFAQATQLGDLHTCLMMDMKACQEDDVRLLCHLTPSIYTEFPDETLRSGELLNMIVAVIDSAQLQELVCHVMMGNLVMFRKDSVLNILIQSLDWETFEQYCAWQLFLAHNIPLETIIPILQHLKYKEHPEALSCLLLQLRREKPSEEMVKMVLSRPCHPDDQFTTSILRHWCMKHDELLAEHIKSLLIKNNSLPRKRQSLRSSSSKLAQLTLEQILEHLDNLRLNLTNTKQNFFSQTPILQALQHVQASCDEAHKMKFSDLFSLAEEYEDSSTKPPKSRRKAALSS
B3: C-terminus of INTS6 (INTS6c; residues 800-887) (domain or fragment, human, UniProt Q9UL03 800-887, looked up)
chain: MHCRSHEEVNTELKAQIMKEIRKPGRKYERIFTLLKHVQGSLQTRLIFLQNVIKEASRFKKRMLIEQLENFLDEIHRRANQINHINSN

Tests used:
crystal structure = biological target: the molecule itself; assay: crystal structure
SEC = biological target: the molecule itself; assay: SEC
[1] = biological target: B1; assay: crystal structure

Binder: B1
stoichiometry N (crystal structure): 2

Binder: B2
stoichiometry N (SEC): 2

Binder: B3
binding result [1]: binds
